Laboratory results: patent publication US7176178 (HANSA MEDICAL, dated 2007)

T1: protein H (COOH-terminally truncated fragment expressed by and purified from E. coli) (Streptococcus pyogenes, UniProt P50470 42-346)
T1 construct: also called recombinant protein H; soluble protein H
T1 sequence: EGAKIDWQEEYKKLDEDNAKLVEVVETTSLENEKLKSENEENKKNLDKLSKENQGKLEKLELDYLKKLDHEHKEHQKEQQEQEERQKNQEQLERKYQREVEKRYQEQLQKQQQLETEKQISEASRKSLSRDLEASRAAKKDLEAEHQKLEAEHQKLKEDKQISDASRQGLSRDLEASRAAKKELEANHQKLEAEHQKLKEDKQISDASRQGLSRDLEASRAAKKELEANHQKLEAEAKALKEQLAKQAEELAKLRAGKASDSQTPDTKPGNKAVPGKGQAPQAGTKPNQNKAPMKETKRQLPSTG

B1: COOH-terminal fragment of NPM, in vitro translated (peptide)
chain: KVPQKKVKLAADEDDDDDDEEDDDEDDDDDDFDDEEAEEKAPVKKSIRDTPAKNAQKSNQNGKDSKPSSTPRSKGQESFKKQEKTPKTPKGPSSVEDIKAKMQASIEKGGSLPKVEAKFINYVKNCFRMTDQEAIQDLWQWRKSL
notes: domain: COOH-terminal half; also called COOH-terminal peptide; COOH-terminal half of NPM

Key:
[1] = biological target: nucleophosmin/B23 (NPM), papain-released material from Jurkat membrane preparations (Mono-Q pool 85-87) (human) (UniProt P06748); assay: competitive inhibition of the binding of 125I-labelled NPM to protein H-Sepharose by unlabeled fragment AB
[2] = biological target: T1, protein H (COOH-terminally truncated …); assay: 35S-labelled in vitro translated peptide applied to protein H-Sepharose, KSCN eluate on SDS-PAGE, autoradiography

Sequence of nucleophosmin/B23 (NPM), papain-released material from Jurkat membrane preparations (Mono-Q pool 85-87) (human) (P06748 1-149 limits assumed): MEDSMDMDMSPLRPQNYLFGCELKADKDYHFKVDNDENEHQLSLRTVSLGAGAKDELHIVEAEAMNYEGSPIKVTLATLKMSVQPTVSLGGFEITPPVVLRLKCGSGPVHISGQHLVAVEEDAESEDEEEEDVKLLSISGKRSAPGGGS

| Molecule | IC50 (read off the curve) [1] | binding result [2] |
| --- | --- | --- |
| fragment AB of protein H (peptide) | 100 pmol | – |
| B1 | – | no binding |
